Experimental data reported in publication PMC6910828, “Extraction of active RhoGTPases by RhoGDI regulates spatiotemporal patterning of RhoGTPases” (eLife, 2019).

Key:
Details in all cases: both partners purified
[1] = molecular target: Cy3-labelled, prenylated Cdc42 G12V, GTPγS-bound (Cy3 at the N-terminus (Cy3 N-t labeled LPETGG peptide joined by sortase); geranylgeranyl by in vitro prenylation (C-terminal prenyl moiety); GTPγS-bound); test: membrane extraction (wash-off) assay on supported lipid bilayers, TIRF; as above, GDI titrated between 0 and 20 µM; Koff of the GTPase from the membrane plotted against GDI concentration and fitted with a hyperbolic function (Kd, Vmax); apparent affinities
[2] = molecular target: Cy3-labelled, prenylated Rho G14V, GTPγS-bound (Cy3 at the N-terminus (Cy3 N-t labeled LPETGG peptide joined by sortase); geranylgeranyl by in vitro prenylation (C-terminal prenyl moiety); GTPγS-bound); test: as above
[3] = molecular target: Cy3-labelled, prenylated Cdc42, wild type, GDP-bound (Cy3 at the N-terminus (Cy3 N-t labeled LPETGG peptide joined by sortase); geranylgeranyl by in vitro prenylation (C-terminal prenyl moiety); GDP-bound); test: membrane extraction (wash-off) assay on supported lipid bilayers, TIRF; Cy3-labelled prenylated GTPase (200 nM) equilibrated on 100% DOPC supported lipid bilayers, flushed at 10 µL/sec with imaging buffer (20 mM HEPES pH 7.0, 150 mM KCl, 1.5 mM MgCl2, 0.5 mM EGTA, 100 µM GDP/GTP) alone or with 5 µM RhoGDI; decay fitted with a monoexponential function
Chain of Cy3-labelled, prenylated Cdc42, wild type, GDP-bound (Cy3 at the N-terminus (Cy3 N-t labeled LPETGG peptide joined by sortase); geranylgeranyl by in vitro prenylation (C-terminal prenyl moiety); GDP-bound) (P60953 whole entry): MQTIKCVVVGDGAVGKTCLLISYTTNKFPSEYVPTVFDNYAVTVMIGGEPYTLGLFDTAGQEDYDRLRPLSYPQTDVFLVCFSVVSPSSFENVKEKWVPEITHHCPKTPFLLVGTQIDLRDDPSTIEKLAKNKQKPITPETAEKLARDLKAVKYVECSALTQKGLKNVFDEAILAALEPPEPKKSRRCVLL

Chain of Cy3-labelled, prenylated Cdc42 G12V, GTPγS-bound (Cy3 at the N-terminus (Cy3 N-t labeled LPETGG peptide joined by sortase); geranylgeranyl by in vitro prenylation (C-terminal prenyl moiety); GTPγS-bound) (chain, as listed by the source G12V): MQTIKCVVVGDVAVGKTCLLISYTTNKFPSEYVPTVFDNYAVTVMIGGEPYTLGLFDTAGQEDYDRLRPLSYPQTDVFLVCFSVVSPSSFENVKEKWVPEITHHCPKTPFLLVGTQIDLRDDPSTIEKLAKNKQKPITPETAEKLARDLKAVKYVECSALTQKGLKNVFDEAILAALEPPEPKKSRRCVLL
Chain of Cy3-labelled, prenylated Rho G14V, GTPγS-bound (Cy3 at the N-terminus (Cy3 N-t labeled LPETGG peptide joined by sortase); geranylgeranyl by in vitro prenylation (C-terminal prenyl moiety); GTPγS-bound) (chain, as listed by the source G14V): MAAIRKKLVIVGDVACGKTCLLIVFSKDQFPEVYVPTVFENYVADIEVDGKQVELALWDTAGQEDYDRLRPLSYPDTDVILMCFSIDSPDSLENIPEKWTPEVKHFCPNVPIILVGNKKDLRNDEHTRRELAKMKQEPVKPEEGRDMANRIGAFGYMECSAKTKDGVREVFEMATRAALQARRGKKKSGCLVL

fold difference in extraction, GDP-bound GTPase over GTPγS-bound G12V [1]: 1.5 fold
fold difference in extraction, GDP-bound GTPase over GTPγS-bound G14V [2]: 1.5 fold
fold acceleration of the dissociation of Cdc42:GDP from the membrane by excess GDI [3]: ~20 fold
B1: Xenopus laevis RhoGDI, wild type (natural protein)
chain: MAEHEPTPEQLHQIAAENQDEEHSVDYKPPAQKSIKEIQELDQDDESLRKYKEALLGSLPSSADPEASNVVVTKLTLLCDCAPGPLELDLTGDLEKFKKQSFTLKEGVEYRIKISFKVNKEIVSGLRYQQQTYRKGVRLDRTRYMVGSYGPRVDEYEFLTPIEEAPNGMLARGCYNIKSLFTDDDKSNHLSWEWNLHIKNDWKS
